For the assay, the target named is UBE2N (human) (UniProt P61088). The experiment in a line: AP-MS, PPI score from compPASS and SAINTexpress, MDA-MB-231 cells.
UBE2N (human), sequence (P61088 whole entry): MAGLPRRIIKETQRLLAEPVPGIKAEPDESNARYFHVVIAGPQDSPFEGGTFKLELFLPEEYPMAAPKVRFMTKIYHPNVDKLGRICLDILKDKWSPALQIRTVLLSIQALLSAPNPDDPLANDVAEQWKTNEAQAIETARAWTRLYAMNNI

The substance “BRCA1 isoform lacking exon 11 (from UniProt P38398 1-721) (enzyme)” gave a PPI score of less than 0.6.

The values are drawn from patent publication US20240321457A1, “SYSTEMS FOR AND METHODS OF TREATMENT SELECTION” (THE REGENTS OF THE UNIVERSITY OF CALIFORNIA, priority 2020, published 2024).
